Some targets named below: BRK (h) (human) (UniProt Q13882); CK1γ3 (h) (human) (UniProt Q9Y6M4); EphA2 (h) (human) (UniProt P29317); JNK1α1 (h) (human) (UniProt P45983); Lyn (h) (human) (UniProt P07948); PDGFRα (h) (human) (UniProt P16234); PKCβI (h) (human) (UniProt P05771); PKCδ (h) (human) (UniProt Q05655); PKCθ (h) (human) (UniProt Q04759).
Common to all, as to assay: cell-based or functional assay
In another experiment the target is T1, ARK5 (h) (human) (UniProt O60285).
T1 sequence (looked up): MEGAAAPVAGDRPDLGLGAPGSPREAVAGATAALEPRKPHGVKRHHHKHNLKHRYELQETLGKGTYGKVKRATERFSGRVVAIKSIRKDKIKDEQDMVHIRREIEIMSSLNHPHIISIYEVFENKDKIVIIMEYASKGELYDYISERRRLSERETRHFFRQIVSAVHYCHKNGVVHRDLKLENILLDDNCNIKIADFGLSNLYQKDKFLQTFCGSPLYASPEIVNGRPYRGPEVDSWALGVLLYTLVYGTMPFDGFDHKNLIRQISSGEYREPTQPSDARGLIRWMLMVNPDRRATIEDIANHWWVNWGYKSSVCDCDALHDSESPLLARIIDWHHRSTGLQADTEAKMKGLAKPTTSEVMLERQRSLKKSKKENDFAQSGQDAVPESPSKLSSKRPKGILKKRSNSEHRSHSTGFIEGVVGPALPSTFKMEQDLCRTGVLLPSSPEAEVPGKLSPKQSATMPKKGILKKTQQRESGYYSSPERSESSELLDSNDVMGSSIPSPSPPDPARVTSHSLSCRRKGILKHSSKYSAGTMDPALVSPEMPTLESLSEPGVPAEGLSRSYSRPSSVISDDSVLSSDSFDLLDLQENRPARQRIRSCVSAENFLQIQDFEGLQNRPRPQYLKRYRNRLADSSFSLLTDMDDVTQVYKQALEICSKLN

For the next experiment, the target named is T2, Fms (h) (human) (UniProt P07333).
T2 sequence (looked up): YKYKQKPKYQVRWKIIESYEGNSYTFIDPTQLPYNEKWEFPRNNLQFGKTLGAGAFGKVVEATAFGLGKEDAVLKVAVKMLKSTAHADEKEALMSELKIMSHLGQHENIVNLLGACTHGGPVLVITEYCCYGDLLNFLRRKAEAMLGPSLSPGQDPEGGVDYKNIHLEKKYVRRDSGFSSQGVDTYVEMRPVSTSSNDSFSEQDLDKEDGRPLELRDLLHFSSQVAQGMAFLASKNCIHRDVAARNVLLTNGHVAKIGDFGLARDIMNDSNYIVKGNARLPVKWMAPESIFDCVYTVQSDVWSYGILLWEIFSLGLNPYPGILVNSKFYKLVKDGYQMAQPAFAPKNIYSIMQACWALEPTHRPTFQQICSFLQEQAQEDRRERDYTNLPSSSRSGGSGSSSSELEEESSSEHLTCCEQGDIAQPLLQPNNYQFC

Experiment [1] deals with IGF-1R (h), activated (human) (UniProt P08069).
Experiment [2] addresses Lck (h) activated (human) (UniProt P06239).
Experiment [3] addresses Mitogen-Activated Protein Kinase-Activated Protein Kinase 2 (human) (UniProt P49137).
The target of another experiment is T3, SGK2 (h) (human) (UniProt Q9HBY8).
T3 sequence (looked up): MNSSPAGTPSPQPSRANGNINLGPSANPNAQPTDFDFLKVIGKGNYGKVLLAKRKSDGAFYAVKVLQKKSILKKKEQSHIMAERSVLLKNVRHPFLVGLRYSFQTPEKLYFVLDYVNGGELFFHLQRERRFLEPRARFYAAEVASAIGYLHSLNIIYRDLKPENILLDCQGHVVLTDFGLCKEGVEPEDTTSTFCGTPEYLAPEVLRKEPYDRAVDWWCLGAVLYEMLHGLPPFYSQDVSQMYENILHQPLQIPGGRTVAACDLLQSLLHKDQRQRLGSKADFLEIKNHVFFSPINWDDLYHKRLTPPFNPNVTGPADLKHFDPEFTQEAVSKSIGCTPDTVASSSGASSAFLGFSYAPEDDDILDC

Experiment [4] addresses T4, Tec (h) activated (human) (UniProt P42680).
T4 sequence (looked up): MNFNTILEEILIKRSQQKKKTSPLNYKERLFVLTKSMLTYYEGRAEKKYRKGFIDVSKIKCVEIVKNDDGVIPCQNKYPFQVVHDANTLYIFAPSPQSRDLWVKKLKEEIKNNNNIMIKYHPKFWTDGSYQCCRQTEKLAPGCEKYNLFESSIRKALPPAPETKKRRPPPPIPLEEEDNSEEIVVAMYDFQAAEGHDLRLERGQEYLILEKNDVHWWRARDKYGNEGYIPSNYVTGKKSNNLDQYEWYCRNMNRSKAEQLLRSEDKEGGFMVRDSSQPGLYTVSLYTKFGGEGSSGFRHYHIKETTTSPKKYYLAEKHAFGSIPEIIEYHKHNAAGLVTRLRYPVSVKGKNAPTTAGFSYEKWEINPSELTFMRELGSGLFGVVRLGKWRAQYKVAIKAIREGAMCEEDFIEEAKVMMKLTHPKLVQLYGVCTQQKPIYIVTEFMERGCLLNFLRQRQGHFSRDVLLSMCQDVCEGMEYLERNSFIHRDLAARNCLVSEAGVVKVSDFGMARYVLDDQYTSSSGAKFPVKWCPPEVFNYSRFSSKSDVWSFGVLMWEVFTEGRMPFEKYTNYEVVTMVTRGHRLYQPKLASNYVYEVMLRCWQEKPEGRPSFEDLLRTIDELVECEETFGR

Chain of IGF-1R (h), activated (human) (P08069 959-1367 limits assumed): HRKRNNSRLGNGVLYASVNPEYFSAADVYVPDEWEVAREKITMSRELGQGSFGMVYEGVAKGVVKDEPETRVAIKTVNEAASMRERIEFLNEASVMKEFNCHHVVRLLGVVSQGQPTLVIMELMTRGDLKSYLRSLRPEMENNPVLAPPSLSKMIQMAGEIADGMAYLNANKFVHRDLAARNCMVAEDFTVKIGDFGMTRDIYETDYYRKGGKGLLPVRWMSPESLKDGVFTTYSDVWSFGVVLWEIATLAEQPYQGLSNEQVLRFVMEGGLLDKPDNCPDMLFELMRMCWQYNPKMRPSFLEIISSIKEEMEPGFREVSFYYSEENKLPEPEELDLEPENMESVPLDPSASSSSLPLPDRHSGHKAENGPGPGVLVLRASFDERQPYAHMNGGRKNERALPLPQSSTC
Chain of PDGFRα (h) (human) (P16234 550-1089 limits assumed): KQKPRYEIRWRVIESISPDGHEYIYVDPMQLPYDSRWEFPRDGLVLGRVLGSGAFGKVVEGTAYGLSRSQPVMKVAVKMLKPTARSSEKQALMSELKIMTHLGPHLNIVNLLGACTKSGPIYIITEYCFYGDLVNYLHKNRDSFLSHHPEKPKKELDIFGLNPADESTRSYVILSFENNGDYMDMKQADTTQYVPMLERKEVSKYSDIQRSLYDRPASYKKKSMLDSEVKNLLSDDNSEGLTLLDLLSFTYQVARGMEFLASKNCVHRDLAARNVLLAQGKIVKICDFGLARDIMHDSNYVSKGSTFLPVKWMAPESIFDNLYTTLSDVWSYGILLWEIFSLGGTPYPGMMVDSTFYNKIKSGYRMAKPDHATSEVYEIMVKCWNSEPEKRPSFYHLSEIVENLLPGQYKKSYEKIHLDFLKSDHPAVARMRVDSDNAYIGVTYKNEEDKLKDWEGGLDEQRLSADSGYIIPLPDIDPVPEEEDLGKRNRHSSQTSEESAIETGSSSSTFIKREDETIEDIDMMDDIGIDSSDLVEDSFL
Chain of EphA2 (h) (human) (P29317 559-976 limits assumed): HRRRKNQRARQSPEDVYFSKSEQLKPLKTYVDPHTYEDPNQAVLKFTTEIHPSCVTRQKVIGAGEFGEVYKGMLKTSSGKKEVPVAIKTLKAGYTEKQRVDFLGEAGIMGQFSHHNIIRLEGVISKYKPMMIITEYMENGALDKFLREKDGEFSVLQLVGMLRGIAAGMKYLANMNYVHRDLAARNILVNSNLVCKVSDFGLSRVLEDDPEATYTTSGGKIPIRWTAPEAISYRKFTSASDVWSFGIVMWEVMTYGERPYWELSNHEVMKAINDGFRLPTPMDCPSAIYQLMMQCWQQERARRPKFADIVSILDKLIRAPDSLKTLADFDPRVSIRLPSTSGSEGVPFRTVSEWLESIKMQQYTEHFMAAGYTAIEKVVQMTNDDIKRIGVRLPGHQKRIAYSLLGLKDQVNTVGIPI

Regarding MMI-0300 (peptide), the % activity at 100 µM with ARK5 (h) (human) came out at 78%; with BRK (h) (human), 35%; with CK1γ3 (h) (human) it was 125%; in the experiment with EphA2 (h) (human) it was 31%; with Fms (h) (human) it was 45%; in experiment [1] it was 80%. Further, the % activity at 100 µM in the experiment with JNK1α1 (h) (human) worked out at 97%; in [2] it was 243%; with Lyn (h) (human), 69%; in [3], 5%; in the experiment with PDGFRα (h) (human) it was 65%; in the experiment with PKCβI (h) (human), 78%. Besides, the % activity at 100 µM stood at 101% with PKCδ (h) (human), 88% with PKCθ (h) (human), 56% with SGK2 (h) (human) and 56% in experiment [4].

Source of the values: US20160136234A1.
